The values below come from patent US20260139049A1 (PEDIATRIC IMMUNITY AND HEALTHCARE GUANGZHOU BIOTECHNOLOGY, published 2026).

Experiment [1] addresses T1, human CLDN6 (human, UniProt P56747 1-220).
T1 construct: whole, on cells; four-transmembrane protein; also called claudin-6; HEK293T-CLDN6
T1 sequence (looked up): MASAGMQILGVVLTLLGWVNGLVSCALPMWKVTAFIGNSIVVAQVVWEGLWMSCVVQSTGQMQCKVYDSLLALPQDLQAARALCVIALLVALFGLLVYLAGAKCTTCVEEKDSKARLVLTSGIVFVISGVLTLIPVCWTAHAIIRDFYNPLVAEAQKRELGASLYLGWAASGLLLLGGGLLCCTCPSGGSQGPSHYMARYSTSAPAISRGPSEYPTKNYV
Briefly: FACS on HEK293T-CLDN6 cells. As for the experimental part:
(§1) To detect a binding capacity of a chimeric or humanized antibody to CLDN6, a CLDN6-expressing cell line HEK293T-CLDN6 and a CLDN6-negative control cell line HEK293T were washed three times with PBS. 1×10⁵ test cells and 50 μL of an antibody solution to be tested were added to a 96-well plate, and incubated at 4° C. for 1 h. The cells were then washed three times with PBS. […] Finally, cells were washed three times with PBS, and signals were read using FACS.
(§2) An EC50 value (a concentration of an antibody that binds to half of binding sites at equilibrium) is calculated through nonlinear regression.

Experiment [2] addresses T2, monkey CLDN6 (Cyno CLDN6) (monkey (Cyno)).
T2 construct: whole, on cells; also called CHO-K1-Cyno CLDN6
Briefly: FACS on CHO-K1-Cyno CLDN6 cells.

The target in another experiment is T3, human CLDN4 (human, UniProt O14493 1-209).
T3 construct: whole, on cells; also called HEK293T-CLDN4
T3 sequence (looked up): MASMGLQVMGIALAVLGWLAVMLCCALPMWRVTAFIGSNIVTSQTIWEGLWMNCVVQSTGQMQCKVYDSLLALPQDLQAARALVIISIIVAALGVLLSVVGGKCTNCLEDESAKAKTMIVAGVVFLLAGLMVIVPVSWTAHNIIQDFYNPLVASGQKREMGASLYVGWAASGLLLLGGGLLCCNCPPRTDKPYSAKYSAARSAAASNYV
Briefly: FACS on 293T-CLDN4 cells, 10 µg/mL. On the procedure:
(§3) 50 μL of an antibody to be tested was added to a 96-well plate, then 1× 10⁵ cells were added to each well, and incubation was conducted at 4° C. for 1 h. Cells were washed three times with PBS. […] Finally, cells were washed three times with PBS, and signals were read using FACS. Binding capacities of the antibody to CLDN9, CLDN3, and CLDN4 were analyzed separately based on detection data.

Experiment [3] deals with T1, human CLDN6. Briefly: FACS on 293T-CLDN6 cells, 10 µg/mL.
The target in a further experiment is T4, human CLDN9 (human, UniProt O95484 1-217).
T4 construct: whole, on cells; also called HEK293T-CLDN9
T4 sequence (looked up): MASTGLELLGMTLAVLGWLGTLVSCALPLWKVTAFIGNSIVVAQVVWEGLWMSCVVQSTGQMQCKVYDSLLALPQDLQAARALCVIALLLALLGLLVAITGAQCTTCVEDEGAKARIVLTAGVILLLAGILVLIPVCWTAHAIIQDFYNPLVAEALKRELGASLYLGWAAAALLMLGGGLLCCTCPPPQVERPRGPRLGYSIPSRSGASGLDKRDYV
Briefly: FACS on 293T-CLDN9 cells, 10 µg/mL. As for the experimental part:
as §3

In experiment [4] the target is T1, human CLDN6. Description: ratio of FACS signals on CLDN6 cells over CLDN9 cells. As for the experimental part: as §3
The target in experiment [5] is T1, human CLDN6. Description: FACS on PA-1 tumour cells; target on the cells taken as CLDN6. As for the experimental part:
(§4) The specific binding of a chimeric antibody to a tumor cell was detected by FACS, and an EC50 value was calculated accordingly to evaluate an inhibitory effect of the chimeric antibody on the tumor cell.
(§5) 50 μL of an antibody to be tested was added to a 96-well plate, then 1×10⁵ cells were added to each well, and incubation was conducted at 4° C. for 1 h. Cells were washed three times with PBS. […] Finally, cells were washed three times with PBS, and signals were read using FACS. A binding capacity of the antibody to each tumor cell was analyzed based on detection data.

Experiment [6] addresses T1, human CLDN6. Description: ratio of FACS Geom.Mean on 293T-CLDN6 over 293T-CLDN9, 10 µg/mL. As for the experimental part: as §3
In the next experiment the target is T5, mouse CLDN6 (mouse, UniProt Q9Z262 1-219).
T5 construct: whole, on cells; also called CHO-K1-Mouse CLDN6
T5 sequence (looked up): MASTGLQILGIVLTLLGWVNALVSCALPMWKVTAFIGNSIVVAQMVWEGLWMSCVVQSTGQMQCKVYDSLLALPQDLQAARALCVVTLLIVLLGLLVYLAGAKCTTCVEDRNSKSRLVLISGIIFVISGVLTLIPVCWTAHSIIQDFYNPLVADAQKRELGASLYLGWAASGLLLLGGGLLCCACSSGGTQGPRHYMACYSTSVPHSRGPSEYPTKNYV
Briefly: FACS on CHO-K1-Mouse CLDN6 cells.

A further experiment addresses T6, human CLDN3 (human, UniProt O15551 1-220).
T6 construct: whole, on cells; also called HEK293T-CLDN3
T6 sequence (looked up): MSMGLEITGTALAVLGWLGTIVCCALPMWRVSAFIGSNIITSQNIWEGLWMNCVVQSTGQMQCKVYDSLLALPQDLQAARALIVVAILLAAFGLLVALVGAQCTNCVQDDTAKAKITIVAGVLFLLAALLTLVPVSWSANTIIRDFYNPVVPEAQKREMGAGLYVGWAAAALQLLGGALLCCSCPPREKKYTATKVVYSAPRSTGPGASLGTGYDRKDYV
Briefly: FACS on 293T-CLDN3 cells, 10 µg/mL. On the procedure:
as §3

The target of experiment [7] is T1, human CLDN6. Briefly: FACS on HepG2 tumour cells; target on the cells taken as CLDN6. On the procedure: as §4, §5
The target in experiment [8] is T1, human CLDN6. Description: cell-based or functional assay.
For experiment [9], the target named is T1, human CLDN6. Description: cell-based or functional assay. This is another data set of the same source.
The target of experiment [10] is T1, human CLDN6. Description: FACS on HEK293T-CLDN6 cells. On the procedure: as §1, §2
The source holds these as a separate data set.

Experiment [11] deals with T1, human CLDN6. Description: FACS on PA-1 tumour cells; target on the cells taken as CLDN6. On the procedure:
as §5
The source holds these as a separate data set.

In experiment [12] the target is T1, human CLDN6. Description: FACS on HepG2 tumour cells; target on the cells taken as CLDN6. As for the experimental part: as §5
The source holds these as a separate data set.

For experiment [13], the target named is T1, human CLDN6. Briefly: binding to CLDN6-expressing cells; method not given.

B1: 58G3C7 (antibody, human IgG1, kappa, V domains shown)
VH: EVQLVESGGGLVKPGGSLKLSCAASGFTFSNYAMSWVRQTPEKRLEWVATISDGGSYTSYPDNIKGRFTISRDNAKNNLYLQVTHLKSEDTAMYYCARDAILITTAGFAYWGQGTLLTVSA
VL: DIQMTQSSSSFSVSLGDRVTITCKASEDIYNRLAWYQQKPGNAPRLLISATTSLETGVPSRFSGSGSGKDYTLSITSLQTEDVATYYCQQYWSFPRTFGGGTKLEVKR
notes: chimeric: murine variable regions on human IgG1 constant regions
What is called EC50 is the concentration giving half of the maximal effect. On to B1, for which the values for the EC50 (with human CLDN6 [1]; in experiment [2]; in the experiment with human CLDN6 [5]) were 0.135 µg/mL, 0.16 µg/mL and 0.232 µg/mL, respectively. The Geom.Mean is 8440 in the experiment with human CLDN4, 33800 with human CLDN6 [3] and 731 with human CLDN9. In addition, the CLDN6/CLDN9 signal ratio with human CLDN6 [4] is about 50 fold. Also, the CLDN6/CLDN9 ratio with human CLDN6 [6] is 46.

B2: 15H2D4 (antibody, human IgG1, kappa, V domains shown)
VH: QAYLQQSGAELVRSGASVKMSCKASGYTFTSYNIHWVKQTPGQGLEWIGYIYPGNGGTKYNERFKGKATLTADASSSTAYMQISSLTSEDSAVYFCARWRYYDRPTHYAMDYWGQGTSVTVSS
VL: DIVVTQSPASLAVSLGQRATISCRASKSVSTSGFSYLHWFQQKPGQPPKLLIYLASNLESGVPARFSGSGSGTDFTLNIHPVEEEDVAVYYCQHSREFPFTFGSGTKLEIKR
notes: as for B1
For the molecule B2, the EC50 is 0.274 µg/mL with human CLDN6 [1]; 0.351 µg/mL in experiment [2]; 0.117 µg/mL with mouse CLDN6; 0.137 µg/mL with human CLDN6 [5]; 0.481 µg/mL with human CLDN6 [7]. In addition, the Geom.Mean turned out to be 139 with human CLDN3, 5280 with human CLDN4, 40800 with human CLDN6 [3] and 88.4 with human CLDN9. In addition, the CLDN6/CLDN9 ratio with human CLDN6 [6] amounted to 462.

B3: 51C10H4 (antibody, human IgG1, kappa, V domains shown)
VH: EVQLQQSGPELVKPGASVKMSCKASGYTFTDYNMHWVKKSHGKSLEWIGYVNPNNGATSYNQKFKGKATLTVNKSSSTAYMELRSLTSEDSAVYNCARWDGYVYYYGLDYWGQGTSVTVSS
VL: DIQMTQSSSYLSVSLGGRVTITCKASDHINNWLAWYQQKPGNAPRLLISGATSLETGVPSRFSGSGSGKDYTLSITSLQTEDVATYYCQQYWSTPYTFGGGTKLEIKR
notes: chimeric IgG1
Regarding B3, the “ADCC dose-response fit: EC50” value with human CLDN6 [8] was determined as 0.0483 µg/mL. In addition, in the experiment with human CLDN6 [8], the “ADCC dose-response fit: LogEC50” value was -1.32. Further, the “CDC dose-response fit: EC50” value in the experiment with human CLDN6 [9] was 0.178 µg/mL. Besides, in the experiment with human CLDN6 [9], the “CDC dose-response fit: LogEC50” value is -0.75. Moreover, the EC50 was found to be 0.354 µg/mL with human CLDN6 [1]; 0.235 µg/mL with human CLDN6 [10]; 0.722 µg/mL in [2]; 0.935 µg/mL in the experiment with mouse CLDN6; 0.538 µg/mL with human CLDN6 [5]; 0.34 µg/mL with human CLDN6 [11]. Moreover, the EC50 in the experiment with human CLDN6 [7] stood at 0.294 µg/mL; with human CLDN6 [12], 0.49 µg/mL. In addition, the Geom.Mean with human CLDN3 was 103; with human CLDN4 it was 210; with human CLDN6 [3], 44900; with human CLDN9, 248. The CLDN6/CLDN9 signal ratio in the experiment with human CLDN6 [4] is about 200 fold. Further, the CLDN6/CLDN9 ratio in the experiment with human CLDN6 [6] turned out to be 181.

B4: 47D5D6 (antibody, human IgG1, kappa, V domains shown)
VH: EVQLVESGGDLVKPGGSLKLSCAASGFTFSSYGMSWVRQTPDKRLEWVATISSGGSYTYYPDSVKGRFTISRDNAKNTLYLQMSSLKSEDTAMYYCARPHYVSSYAMDYWGQGTSVTVSS
VL: DIQMTQSSSSFSVSLGDRVTITCKASEDIYNRLAWYQQKPGNAPRLLISGATSLETGVPSRFSGSGSGKDYTLSITSLQTEDVATYYCQQYWSTPPTFGGGTKLEIKR
notes: as for B1
With B4, the values for the EC50 (with human CLDN6 [1]; in experiment [2]; in the experiment with mouse CLDN6) were 1.04 µg/mL, 1.94 µg/mL and 2.09 µg/mL, respectively. For the same molecule, the Geom.Mean came out at 151 with human CLDN3, 5620 with human CLDN4, 33000 with human CLDN6 [3] and 428 with human CLDN9. The CLDN6/CLDN9 signal ratio with human CLDN6 [4] is about 50 fold. Further, the CLDN6/CLDN9 ratio with human CLDN6 [6] came to 77.

B5: 51C10-M2 (antibody, human IgG1, kappa, V domains shown)
VH: EVQLQQSGPELVKPGASVKMSCKASGYTFTDYNMHWVKKSHGKSLEWIGYVNPNQGATSYNQKFKGKATLTVNKSSSTAYMELRSLTSEDSAVYNCARWDGYVYYYGLDYWGQGTSVTVSS
VL: DIQMTQSSSYLSVSLGGRVTITCKASDHINNWLAWYQQKPGNAPRLLISGATSLETGVPSRFSGSGSGKDYTLSITSLQTEDVATYYCQQYWSTPYTFGGGTKLEIKR
notes: 51C10H4 with N of NG in heavy-chain CDR2 changed to Q; also called improved antibody 51C10-M2
With B5, the binding result with human CLDN6 [13] is “binds”.

B6: 51C10-M4 (antibody, human IgG1, kappa, V domains shown)
VH: EVQLQQSGPELVKPGASVKMSCKASGYTFTDYNMHWVKKSHGKSLEWIGYVNPNNGATSYNQKFKGKATLTVNKSSSTAYMELRSLTSEDSAVYNCARWEGYVYYYGLDYWGQGTSVTVSS
VL: DIQMTQSSSYLSVSLGGRVTITCKASDHINNWLAWYQQKPGNAPRLLISGATSLETGVPSRFSGSGSGKDYTLSITSLQTEDVATYYCQQYWSTPYTFGGGTKLEIKR
notes: 51C10H4 with D of DG in heavy-chain CDR3 changed to E; also called improved antibody 51C10-M4
Take B6: in the experiment with human CLDN6 [13], the binding result is on record as “binds”.

B7: 51C10-M3 (antibody, human IgG1, kappa, V domains shown)
VH: EVQLQQSGPELVKPGASVKMSCKASGYTFTDYNMHWVKKSHGKSLEWIGYVNPNNGATSYNQKFKGKATLTVNKSSSTAYMELRSLTSEDSAVYNCARWDAYVYYYGLDYWGQGTSVTVSS
VL: DIQMTQSSSYLSVSLGGRVTITCKASDHINNWLAWYQQKPGNAPRLLISGATSLETGVPSRFSGSGSGKDYTLSITSLQTEDVATYYCQQYWSTPYTFGGGTKLEIKR
notes: 51C10H4 with G of DG in heavy-chain CDR3 changed to A; also called improved antibody 51C10-M3
Regarding B7, the binding result in the experiment with human CLDN6 [13] was “binds”.
